Numbering of substitutions follows the chain as printed. Numbers in names are those of the source. Values belong to the molecule of their own block, whether it stands above or below them.
Tests used:
[1] = target: GAL4 activation domain fusion (ACT) to HAB1 (UniProt Q9CAJ0); test: yeast two-hybrid, X-gal; lowest mandipropamid concentration giving signal
[2] = target: T1, 6×-His tagged PYR1^K59R,F108A,S122G
T1 chain: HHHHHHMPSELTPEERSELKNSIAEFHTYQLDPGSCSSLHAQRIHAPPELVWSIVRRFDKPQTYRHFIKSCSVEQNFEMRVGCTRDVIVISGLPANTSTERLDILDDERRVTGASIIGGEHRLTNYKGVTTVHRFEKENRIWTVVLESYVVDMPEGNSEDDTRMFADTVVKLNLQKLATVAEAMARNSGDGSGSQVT

6×-His-PYR1^MANDI = target: T2, 6×-His-PYR1^MANDI
T2 chain: T1 chain with Y64H, V87I, F165L

GST-HAB1 = target: T3, GST-HAB1 (UniProt Q9CAJ0 23-511); test: cell-based or functional assay
T3 sequence (looked up): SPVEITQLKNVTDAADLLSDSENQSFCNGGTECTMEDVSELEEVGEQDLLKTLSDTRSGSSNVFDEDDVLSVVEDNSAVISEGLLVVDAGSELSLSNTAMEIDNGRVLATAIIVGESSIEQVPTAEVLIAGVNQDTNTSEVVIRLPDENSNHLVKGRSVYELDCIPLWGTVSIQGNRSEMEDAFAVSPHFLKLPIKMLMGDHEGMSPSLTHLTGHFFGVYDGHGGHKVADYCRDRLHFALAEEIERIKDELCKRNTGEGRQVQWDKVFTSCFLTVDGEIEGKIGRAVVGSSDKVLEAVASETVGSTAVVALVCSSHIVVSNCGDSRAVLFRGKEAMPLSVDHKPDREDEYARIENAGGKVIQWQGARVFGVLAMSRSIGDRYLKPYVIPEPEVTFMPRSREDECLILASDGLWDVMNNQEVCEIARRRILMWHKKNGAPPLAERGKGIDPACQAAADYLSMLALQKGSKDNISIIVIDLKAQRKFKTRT

GST-ABI1 = target: T4, GST-ABI1 (UniProt P49597 1-434); test: cell-based or functional assay
T4 sequence (looked up): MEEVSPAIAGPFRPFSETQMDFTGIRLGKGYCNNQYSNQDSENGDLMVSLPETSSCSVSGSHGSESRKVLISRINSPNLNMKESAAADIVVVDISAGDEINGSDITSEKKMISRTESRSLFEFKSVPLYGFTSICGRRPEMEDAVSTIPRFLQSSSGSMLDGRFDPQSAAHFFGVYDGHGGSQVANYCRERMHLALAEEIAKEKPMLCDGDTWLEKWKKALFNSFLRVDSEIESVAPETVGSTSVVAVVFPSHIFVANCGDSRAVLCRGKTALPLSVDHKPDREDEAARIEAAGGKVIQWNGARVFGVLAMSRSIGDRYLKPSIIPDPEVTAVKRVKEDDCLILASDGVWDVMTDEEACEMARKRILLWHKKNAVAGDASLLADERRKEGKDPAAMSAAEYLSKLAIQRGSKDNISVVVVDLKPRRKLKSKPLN

GST-ABI2 = target: T5, GST-ABI2 (UniProt O04719 1-423); test: cell-based or functional assay
T5 sequence (looked up): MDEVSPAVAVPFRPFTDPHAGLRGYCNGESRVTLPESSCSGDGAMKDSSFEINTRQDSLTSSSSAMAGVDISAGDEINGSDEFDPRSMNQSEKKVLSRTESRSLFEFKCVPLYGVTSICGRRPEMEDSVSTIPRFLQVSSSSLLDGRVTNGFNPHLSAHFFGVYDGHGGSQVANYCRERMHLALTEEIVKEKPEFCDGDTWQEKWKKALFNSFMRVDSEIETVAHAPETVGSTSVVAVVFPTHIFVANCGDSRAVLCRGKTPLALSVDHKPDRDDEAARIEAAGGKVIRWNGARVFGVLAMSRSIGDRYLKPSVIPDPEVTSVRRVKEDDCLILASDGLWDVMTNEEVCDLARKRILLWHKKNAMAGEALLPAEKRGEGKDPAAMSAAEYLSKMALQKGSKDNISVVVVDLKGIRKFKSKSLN

[3] = target: T6, GAL4 activation domain fusion (ACT) to HAB1 (UniProt Q9CAJ0 23-511, limits assumed); test: yeast two-hybrid, X-gal; lowest benoxacor concentration giving signal
T6 construct: pACT-HAB1 fusion in yeast reporter strains; also called pACT-HAB1
T6 sequence (looked up): T3 sequence (looked up)
Method: The set of 475 mutant plasmids were individually transformed into the Y190 yeast two hybrid reporter strain co-transformed with pACT-HAB1, as previously described (Park et al., 2009). The yeast strains generated were arrayed into 96-well plates yielding what we refer to as the “pocket library”. The pocket library strains were spotted onto agar plates containing selective synthetic dextrose (minus Leu & Trp) medium that was supplemented with a single test compound at 100 μM. The pocket library strains were separately tested for responsiveness to the following compounds: dichlobenil, benzothiadiazole, mandipropamid, fludioxonil, and benoxacor. After incubating test plates at 30° C. for two days, colonies were chloroform lysed and stained to reveal β-galactosidase expression levels, using previously described methods (Park et al., 2009). Mutants displaying responsiveness to the test compound, if present, were identified by virtue of X-gal staining and then subjected to subsequent optimization efforts. Using this approach we identified mutations that conferred detectable sensitivity to the compounds tested (see entries labeled “Pocket Library Screens” in Table 1).

[4] = target: T6, GAL4 activation domain fusion (ACT) to …; test: yeast two-hybrid, X-gal; lowest dichlobenil concentration giving signal
[5] = target: T6, GAL4 activation domain fusion (ACT) to …; test: yeast two-hybrid, X-gal; lowest fludioxonil concentration giving signal
[6] = target: T6, GAL4 activation domain fusion (ACT) to …; test: yeast two-hybrid, X-gal; lowest mandipropamid concentration giving signal
[7] = target: T6, GAL4 activation domain fusion (ACT) to …; test: yeast two-hybrid, X-gal; lowest benzothiadiazole concentration giving signal

Molecule: PYR1^Y58H,K59R,V81I,F108A,F159L (from UniProt P04386 1-147) (receptor)
Threshold [1]: 0.01 µM

B1: GST-ABI2 (protein)
chain: T5 sequence (looked up)
PP2C activity (pNPP substrate), 600 nM PP2C and 1200 nM receptor [2]: saturable inhibition of HAB1 and ABI2 PP2C activity by mandipropamid in the presence of PYR1^MANDI (FIG. 1A, bottom lines) and PYR1^K59R,F108A,S122G
PP2C activity (pNPP substrate), 600 nM PP2C and 1200 nM receptor (6×-His-PYR1^MANDI): saturable inhibition of HAB1 and ABI2 PP2C activity by mandipropamid in the presence of PYR1^MANDI

B2: GST-HAB1 (protein)
chain: T3 sequence (looked up)
PP2C activity (pNPP substrate), 600 nM PP2C and 1200 nM receptor [2]: saturable inhibition of HAB1 and ABI2 PP2C activity by mandipropamid in the presence of PYR1^MANDI (FIG. 1A, bottom lines) and PYR1^K59R,F108A,S122G
PP2C activity (pNPP substrate), 600 nM PP2C and 1200 nM receptor (6×-His-PYR1^MANDI): saturable inhibition of HAB1 and ABI2 PP2C activity by mandipropamid in the presence of PYR1^MANDI

B3: 6×-His-PYR1^MANDI (receptor)
chain: T1 chain with Y64H, V87I, F165L
IC50 of mandipropamid mediated inhibition of PP2C activity (4-methylumbelliferyl-phosphate substrate) (GST-HAB1): 32.2 nM
IC50 of mandipropamid mediated inhibition of PP2C activity (4-methylumbelliferyl-phosphate substrate) (GST-ABI1): 26.8 nM
IC50 of mandipropamid mediated inhibition of PP2C activity (4-methylumbelliferyl-phosphate substrate) (GST-ABI2): 75.5 nM

B5: PYR1^K59R,T162W (receptor, not shown: small tags and cut ends)
chain: MPSELTPEERSELKNSIAEFHTYQLDPGSCSSLHAQRIHAPPELVWSIVRRFDKPQTYRHFIKSCSVEQNFEMRVGCTRDVIVISGLPANTSTERLDILDDERRVTGFSIIGGEHRLTNYKSVTTVHRFEKENRIWTVVLESYVVDMPEGNSEDDTRMFADWVVKLNLQKLATVAEAMARNSGDGSGSQVT
notes: pBD-PYR1 fusion in yeast
Threshold [3]: 50 µM
Threshold [4]: 100 µM
Threshold [5]: 100 µM
Threshold [7]: 100 µM

Further lines, results first:

Threshold [3]: 100 µM
Threshold [4]: 100 µM
Threshold [5]: 100 µM
Threshold [6]: 100 µM
Threshold [7]: 100 µM
B4: PYR1^K59R,F159V (receptor, not shown: small tags and cut ends)
chain: B5 chain with F159V, W162T
notes: pBD-PYR1 fusion in yeast

Threshold [3]: 100 µM
Threshold [4]: 100 µM
Threshold [5]: 100 µM
Threshold [7]: 100 µM
B6: PYR1^K59R,M158T (receptor, not shown: small tags and cut ends)
chain: B5 chain with M158T, W162T
notes: pBD-PYR1 fusion in yeast

Threshold [3]: 100 µM
Threshold [4]: 100 µM
Threshold [5]: 100 µM
Threshold [7]: 100 µM
B7: PYR1^K59R,M158V (receptor, not shown: small tags and cut ends)
chain: B5 chain with M158V, W162T
notes: pBD-PYR1 fusion in yeast

— US20160115500A1 (University of California, published 2016)
